This data set in a line: soluble on expression in E. coli; label from the status in PepcDB or PDB records.
In the case of “MPKWISIDEAAHKYGVKEEDICLWAEMEAITAYFTETTLIIDEKSLQKFMYLRKNLPTTGYIRTLEQLCINQSEVCKLYMEVIELQEKDLQYKKRRISVLERQYAMATKQNKLREKIITITSDMLSKAESGWWEKLWMKISNRQKL”, the “soluble on expression in E. coli” value was “not soluble”.
The entry for “SSALPRTLGELQLYRVLQRANLLSYYETFIQQGGDDVQQLCEAGEEEFLEIMALVGMATKPLHVRRLQKALREWATNPGLFSQPVPAVPVSSIPLFKISETAG” is “soluble”.
The entry for “DEQEKLLRLVDNSVELMSLLGTNNINSYINKAGMELLGFDTMEQVLRTPISELHLKEDFEKVSANVITSLQDKGRWSGQMNVRNLKSGEVIPVYNNTVRIDDPATGEILAFGAVMRDMR” is “not soluble”; for “MTEAQLTLPTTKLSPTQKTQFIKLEKKLRRNVGQAIAQYNMIEDGDKVMVCLSGGKDSYAMLSILMLLKESAPIHFDIIAVNLDQKQPGFPEHILPEYLDKLGIEYHIVEEDTYGIVKEKVPEGKTTCSLCSRLRRAVLYKAAKKIGATKIALGHHRDDMIETLMLNMFYGGKMKAMPAKLVSDNGEHVVIRPLAFCKESELIQYSELKHFPIIPCNL” it is “not soluble”; for “MGSDKIHHHHHHMKQLVELERSSLGPQEAPVRLALSPDAGSPRDPQWQGPSGGFAINGKFASQRITGVQRVGYELAVAFQHLFPHGTDLPLLVPPNARTDVVFPNAKVIGRRLKGSLWEQFSLPFATGRRTLLSLCNMGPLFVRRQVVMVHDVAIYDLPQNYSWKYRLWYRVALSLLKRNVRHIVTVSEFSKKRIVERLGIDASRISVVLNGVDHFEKISPDTAILSRLNLQKDGYVLAVGNLSVGKNLPRILTAVERLNDSHDWKFVVVGGCDLRVFNSGAKVGFDLSKNIVPAGFVSDGELRALYENAACFLFPSLYEGFGLPPLEAMSCGCPVIVSREASLPEVCGDAALYCDAYSVDDIVDKVTQMMADPAARETWRQRGREHARGFRWERSARQLLGILERELAGEVAPPVHAQSAQSDQSAPSRV” it is “not soluble”.
The entry for “MTIIKLERRDVRLLLLYEFRLGHSAMEAERNICGAMGEGALSYNTAKSWFQKFKNGDFSLEEIERSGRPVELNEEDLVKLVEEEPRLSLREMEEKLECCHSTIARHLGRLGFTSKLGIWVPHELSASQKLTRVNVCTQLLTFRRKFDWLNNLVTGDEKWVLYVNHSRKRQWLPIGEKGIPTPKPDLHPKKIMICVWWGVQGPVHWELLPTNKTITADYYCAQLDRVAEKTNGKYEKLYFLHDNARPHVAKKTFQKLQDLGWTVLPHPPYSPDLAPTDYHLFLSLSDYMRDKQFDDEEHLKTELSTFFSSRSPDFFSRGIMMLPSKWQQVVDTNGEYLCE” is “not soluble”; for “MSKSTAEIRQAFLDFFHSKGHQVVASSSLVPHNDPTLLFTNAGMNQFKDVFLGLDKRNYSRATTSQRCVRAGGKHNDLENVGYTARHHTFFEMLGNFSFGDYFKHDAIQFAWELLTSEKWFALPKERLWVTVYESDDEAYEIWEKEVGIPRERIIRIGDNKGAPYASDNFWQMGDTGPCGPCTEIFYDHGDHIWGGPPGSPEEDGDRYIEIWNIVFMQFNRQADGTMEPLPKPSVDTGMGLERIAAVLQHVNSNYDIDLFRTLIQAVAKVTGATDLSNKSLRVIADHIRSCAFLIADGVMPSNENRGYVLRRIIRRAVRHGNMLGAKETFFYKLVGPLIDVMGSAGEDLKRQQAQVEQVLKTEEEQFARTLERGLALLDEELAKLSGDTLDGETAFRLYDTYGFPVDLTADVCRERNIKVDEAGFEAAMEEQRRRAREASGFGADYNAMIRVDSASEFKGYDHLELNGKVTALFVDGKAVDAINAGQEAVVVLDQTPFYAESGGQVGDKGELKGANFSFAVEDTQKYGQAIGHIGKLAAGSLKVGDAVQADIDEARRARIRLNHSATHLMHAALRQVLGTHVSQKGSLVNDKVLRFDFSHNEAMKPEEIRAVEDLVNAQIRRNLPIETNIMNLEAAKAKGAMALFGEKYDERVRVLSMGDFSTELCGGTHASRTGDIGLFRIISESGTAAGVRRIEAVTGEGAITTVHADSDRLSEVAHLLKGDSNNLADKVRSVLERTRQLEKELQQLKEQAAAQESANLSSKAIDVNGVKLLVSELSGVEPKMLRTMVDDLKNQLGSTIIVLATVAEGKVSLIAGVSKDVTDRVKAGELIGMVAQQVGGKGGGRPDMAQAGGTDAAALPAALASVKGWVSAKLQ” it is “not soluble”.

Source of the values: the DeepSol protein solubility set.
